The source of these data is PMC3912200, “Structural and Functional Characterization of Cargo-Binding Sites on the μ4-Subunit of Adaptor Protein Complex 4” (PLoS ONE, 2014).

This assay concerns APP-GFP. Put plainly: Distribution of APP-GFP in H4 neuroglioma cells. Type of assay: cell-based, human. The following applies: untagged; 36 h; APP-GFP F615P/D664A; TGN46, EEA1 staining. As to the method: H4 human neuroglioma or MDA-MB-231 human mammary gland epithelial cells obtained from the American Type Culture Collection (Manassas, VA) were maintained in DMEM (H4) or DMEM/F12 (MDA-MB-231) supplemented with 10% (v/v) fetal bovine serum (FBS), 100 U/ml penicillin and 100 µg/ml streptomycin (Life Technologies). Transfections were carried out using Lipofectamine 2000 (Life Technologies) for 1 h at 37°C in the absence of FBS, and cells were analyzed 16, 24 or up to 36-h after transfection, for which we observed no notorious signs of loss in cell viability. SDS-PAGE, immunoblotting, and immunoprecipitation were performed as described. […]
Indirect immunofluorescence staining of fixed, permeabilized cells was performed as previously described, using sheep polyclonal antibody anti-TGN46 (Serotec), and mouse monoclonal antibody anti-EEA1 (BD Biosciences) or rabbit polyclonal antibody anti-EEA1 (Santa Cruz Biotechnology), followed by the secondary antibodies Alexa-647–conjugated donkey anti-mouse IgG, Alexa-594–conjugated donkey anti-rabbit IgG, or Alexa-594– or -647–conjugated donkey anti-sheep IgG (Life Technologies). […] Quantitative analysis of colocalization was performed as we previously described, with minor modifications. […]

B1: µ4-F255A: untagged full-length μ4-F255A, overexpressed (protein, UniProt O00189 1-453, looked up, variant F255A)
chain: MISQFFILSSKGDPLIYKDFRGDSGGRDVAELFYRKLTGLPGDESPVVMHHHGRHFIHIRHSGLYLVVTTSENVSPFSLLELLSRLATLLGDYCGSLGEGTISRNVALVYELLDEVLDYGYVQTTSTEMLRNFIQTEAVVSKPFSLFDLSSVGLFGAETQQSKVAPSSAASRPVLSSRSDQSQKNEVFLDVVERLSVLIASNGSLLKVDVQGEIRLKSFLPSGSEMRIGLTEEFCVGKSELRGYGPGIRVDEVSAHSSVNLDEFESHRILRLQPPQGELTVMRYQLSDDLPSPLPFRLFPSVQWDRGSGRLQVYLKLRCDLLSKSQALNVRLHLPLPRGVVSLSQELSSPEQKAELAEGALRWDLPRVQGGSQLSGLFQMDVPGPPGPPSHGLSTSASPLGLGPASLSFELPRHTCSGLQVRFLRLAFRPCGNANPHKWVRHLSHSDAYVIRI
modifications: full-length
notes: untagged full-length μ4-F255A, overexpressed
Regarding B1, the “APP redistribution (figure title)” value was “APP redistributes from endosomes to the TGN”.
